Kd, koff and kon data for 9 molecules are collected here from patent publication US20250041437A1 (SUN PHARMA ADVANCED RESEARCH, published 2025).

To fix the notation:
T1: recombinant human MUC1-SEA (MUC1 antigen, Acrobiosystems, Cat: MU1-H52H9) (human, UniProt P15941 1039-1158)
T1 construct: Bought protein, captured on an anti-His chip (so His-tagged)
T1 sequence: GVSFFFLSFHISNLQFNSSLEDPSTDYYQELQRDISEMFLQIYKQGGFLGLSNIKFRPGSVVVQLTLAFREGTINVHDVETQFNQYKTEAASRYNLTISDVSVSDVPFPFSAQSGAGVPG

B1: humanized IgG1 anti-MUC1-SEA mAb (HM5 LM4) (antibody, V domains shown)
VH: EIQLVQSGAEVKKPGSSVKVSCKVTGHSITRGSSWHWMRQAPGQGLEWIGYIHYGGGTSYNPSLKSRITITRDTSTNTFYMELSSLRSEDTAFYFCARYSYDITYRWFFDVWGQGTLVTVSS
VL: DIQMTQSPSTLSASVGDRVTITCRASQNIGTSIHWYQQKPGKAPKLLIKYASESISGVPSRFSGSGSGTEFTLTISSLQPDDFATYYCQQNNNWPLTFGQGTKVEIKR
notes: also called Humanized anti-MUC1 SEA IgG1; humanized IgG anti-MUC1-SEA mAb
B2: HM2 LM2 variant of humanized anti-MUC1 antibody SP66 (antibody, V domains shown)
VH: EIQLVQSGAEVKKPGSSVKVSCKVTGHSITRGSSWHWMRQAPGQGLEWIGYIHYGGGTSYNPSLKSRITITRDTSTNTAYMELSSLRSEDTAFYFCARYSYDITYRWFFDVWGQGTLVTVSS
VL: DIQMTQSPSTLSASVGDRVTITCRASQNIGTSIHWYQQKPGKAPKLLIKRASESISGVPSRFSGSGSGTEFTLTISSLQPDDFATYYCQQNNNWPLTFGQGTKVEVK
notes: Humanized IgG expressed in CHO cells; only variable domains tied to the variant
B3: HM5 LM2 variant of humanized anti-MUC1 antibody SP66 (antibody, V domains shown)
VH: EIQLVQSGAEVKKPGSSVKVSCKVTGHSITRGSSWHWMRQAPGQGLEWIGYIHYGGGTSYNPSLKSRITITRDTSTNTFYMELSSLRSEDTAFYFCARYSYDITYRWFFDVWGQGTLVTVSS
VL: DIQMTQSPSTLSASVGDRVTITCRASQNIGTSIHWYQQKPGKAPKLLIKRASESISGVPSRFSGSGSGTEFTLTISSLQPDDFATYYCQQNNNWPLTFGQGTKVEVK
notes: as for B2
B4: HM4 LM3 variant of humanized anti-MUC1 antibody SP66 (antibody, V domains shown)
VH: EIQLVQSGAEVKKPGSSVKVSCKVTGHSITRGSSWHWMRQAPGQGLEWIGYIHYGGGTSYNPSLKSRATLTRDTSTNTFYMELSSLRSEDTAFYFCARYSYDITYRWFFDVWGQGTLVTVSS
VL: DIQMTQSPSTLSASVGDRVTITCRASQNIGTSIHWYQQKPGKAPKLLIKYASESISGVPSRFSGSGSGTEFTLTISSLQPDDFATYYCQQNNNWPLTFGQGTKVEVK
notes: as for B2
B5: HM3 LM3 variant of humanized anti-MUC1 antibody SP66 (antibody, V domains shown)
VH: EIQLVQSGAEVKKPGSSVKVSCKVTGHSITRGSSWHWMRQAPGQGLEWIGYIHYGGGTSYNPSLKSRATLTRDTSTNTAYMELSSLRSEDTAFYFCARYSYDITYRWFFDVWGQGTLVTVSS
VL: DIQMTQSPSTLSASVGDRVTITCRASQNIGTSIHWYQQKPGKAPKLLIKYASESISGVPSRFSGSGSGTEFTLTISSLQPDDFATYYCQQNNNWPLTFGQGTKVEVK
notes: as for B2
B6: HM3 LM2 variant of humanized anti-MUC1 antibody SP66 (antibody, V domains shown)
VH: EIQLVQSGAEVKKPGSSVKVSCKVTGHSITRGSSWHWMRQAPGQGLEWIGYIHYGGGTSYNPSLKSRATLTRDTSTNTAYMELSSLRSEDTAFYFCARYSYDITYRWFFDVWGQGTLVTVSS
VL: DIQMTQSPSTLSASVGDRVTITCRASQNIGTSIHWYQQKPGKAPKLLIKRASESISGVPSRFSGSGSGTEFTLTISSLQPDDFATYYCQQNNNWPLTFGQGTKVEVK
notes: as for B2
B7: HM5 LM3 variant of humanized anti-MUC1 antibody SP66 (antibody, V domains shown)
VH: EIQLVQSGAEVKKPGSSVKVSCKVTGHSITRGSSWHWMRQAPGQGLEWIGYIHYGGGTSYNPSLKSRITITRDTSTNTFYMELSSLRSEDTAFYFCARYSYDITYRWFFDVWGQGTLVTVSS
VL: DIQMTQSPSTLSASVGDRVTITCRASQNIGTSIHWYQQKPGKAPKLLIKYASESISGVPSRFSGSGSGTEFTLTISSLQPDDFATYYCQQNNNWPLTFGQGTKVEVK
notes: as for B2
B8: HM2 LM3 variant of humanized anti-MUC1 antibody SP66 (antibody, V domains shown)
VH: EIQLVQSGAEVKKPGSSVKVSCKVTGHSITRGSSWHWMRQAPGQGLEWIGYIHYGGGTSYNPSLKSRITITRDTSTNTAYMELSSLRSEDTAFYFCARYSYDITYRWFFDVWGQGTLVTVSS
VL: DIQMTQSPSTLSASVGDRVTITCRASQNIGTSIHWYQQKPGKAPKLLIKYASESISGVPSRFSGSGSGTEFTLTISSLQPDDFATYYCQQNNNWPLTFGQGTKVEVK
notes: as for B2
B9: HM4 LM2 variant of humanized anti-MUC1 antibody SP66 (antibody, V domains shown)
VH: EIQLVQSGAEVKKPGSSVKVSCKVTGHSITRGSSWHWMRQAPGQGLEWIGYIHYGGGTSYNPSLKSRATLTRDTSTNTFYMELSSLRSEDTAFYFCARYSYDITYRWFFDVWGQGTLVTVSS
VL: DIQMTQSPSTLSASVGDRVTITCRASQNIGTSIHWYQQKPGKAPKLLIKRASESISGVPSRFSGSGSGTEFTLTISSLQPDDFATYYCQQNNNWPLTFGQGTKVEVK
notes: as for B2

One test deals with T1, recombinant human MUC1-SEA (MUC1 …). Put plainly: SPR, single cycle kinetics; MUC1 antigen captured on anti-His CM5 chip. For orientation: In SPR one partner is held on a chip, and binding of the other changes the refractive index at the surface.
The term Kd denotes the concentration at which binding is half-saturated. Usually koff stands for the first-order rate constant of dissociation. One may read the kon as the rate constant with which the complex forms. For B1, the Kd turned out to be 0.0397 nM, the koff came out at 0.000281 s⁻¹ and the kon was 7.07e+06 M⁻¹ s⁻¹.

For a further test the target is unchanged. Put plainly: SPR; MUC1 antigen captured on anti-His CM5 chip, antibody as analyte.
For the molecule B2, the Kd is 0.144 nM, the koff was found to be 0.000255 s⁻¹ and the kon was 1.77e+06 M⁻¹ s⁻¹.
For B1, the Kd came out at 0.0298 nM, the koff amounted to 0.00015 s⁻¹ and the kon was 5.02e+06 M⁻¹ s⁻¹.
On the same counts, the results for B3 are 0.0444 nM, 0.000213 s⁻¹ and 4.8e+06 M⁻¹ s⁻¹.
B4: the Kd is 0.0826 nM, the koff came to 0.000238 s⁻¹ and the kon worked out at 2.88e+06 M⁻¹ s⁻¹.
On the same counts, the results for B5 are 0.0775 nM, 0.00347 s⁻¹ and 4.47e+07 M⁻¹ s⁻¹.
As for B6, the Kd came out at 0.186 nM, the koff came out at 0.000492 s⁻¹ and the kon turned out to be 2.65e+06 M⁻¹ s⁻¹.
Taken in the same sequence, the figures for B7 were 0.05 nM, 0.000198 s⁻¹ and 3.97e+06 M⁻¹ s⁻¹.
In the case of B8, the Kd is 0.0598 nM, the koff amounted to 0.000188 s⁻¹ and the kon came to 3.14e+06 M⁻¹ s⁻¹.
Taken in the same sequence, the figures for B9 were 0.0639 nM, 0.000261 s⁻¹ and 4.08e+06 M⁻¹ s⁻¹.
